Several values for one entry are separate records, joined by “and”; a condition that tells them apart may be missing. Equal values may be shown once.
Key:
[1] = target: TNF-α cell surface receptors on human HeLa and FS11 fibroblast cells (human); assay: 125I-TNF-α binding to cells; control without urine concentrate, condition C (4° C. together with TNF-α)
[2] = target: TNF-α cell surface receptors on human HeLa and FS11 fibroblast cells (human); assay: 125I-TNF-α binding to cells; urine concentrate holding TNF Inhibitory Protein applied at 37° C. 90′ prior to TNF-α and removed (condition B)
[3] = target: TNF-α cell surface receptors on human HeLa and FS11 fibroblast cells (human); assay: 125I-TNF-α binding to cells; control without urine concentrate, condition A (4° C. 90′ prior to application of TNF-α)
[4] = target: TNF-α cell surface receptors on human HeLa and FS11 fibroblast cells (human); assay: 125I-TNF-α binding to cells; control without urine concentrate, condition B (37° C. 90′ prior to application of TNF-α)

TNF-α cell surface receptors on human HeLa and FS11 fibroblast cells (human), sequence (P19438 30-455): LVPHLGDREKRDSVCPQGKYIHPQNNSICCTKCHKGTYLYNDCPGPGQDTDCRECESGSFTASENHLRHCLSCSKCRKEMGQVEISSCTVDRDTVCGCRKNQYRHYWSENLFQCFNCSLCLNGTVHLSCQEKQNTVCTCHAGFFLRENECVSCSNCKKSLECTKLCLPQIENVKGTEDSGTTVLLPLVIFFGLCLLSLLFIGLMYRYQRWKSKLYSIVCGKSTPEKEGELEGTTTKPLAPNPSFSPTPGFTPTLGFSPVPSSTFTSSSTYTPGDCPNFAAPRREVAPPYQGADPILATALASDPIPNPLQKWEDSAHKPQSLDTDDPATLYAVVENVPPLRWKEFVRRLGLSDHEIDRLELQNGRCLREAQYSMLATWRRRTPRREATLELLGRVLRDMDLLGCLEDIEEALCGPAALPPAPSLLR

CPM [1]: 4630 CPM
CPM [2]: 4730 CPM and 4460 CPM
CPM [3]: 5290 CPM
CPM [4]: 5560 CPM
Substance: Tumor Necrosis Factor-α (TNF-α) (from UniProt P01375 77-233) (ligand)

Source: US20050245731A1
